Reference: publication PMC3698143, “GRG5/AES Interacts with T-Cell Factor 4 (TCF4) and Downregulates Wnt Signaling in Human Cells and Zebrafish Embryos” (PLoS ONE, 2013)

Molecular target: Myc-tagged full-length TCF4 (human, UniProt Q9NQB0-8 1-596)
Test: cell-based or functional assay

Chain of Myc-tagged full-length TCF4 (Q9NQB0 other isoform, or with tags, fused parts or gaps): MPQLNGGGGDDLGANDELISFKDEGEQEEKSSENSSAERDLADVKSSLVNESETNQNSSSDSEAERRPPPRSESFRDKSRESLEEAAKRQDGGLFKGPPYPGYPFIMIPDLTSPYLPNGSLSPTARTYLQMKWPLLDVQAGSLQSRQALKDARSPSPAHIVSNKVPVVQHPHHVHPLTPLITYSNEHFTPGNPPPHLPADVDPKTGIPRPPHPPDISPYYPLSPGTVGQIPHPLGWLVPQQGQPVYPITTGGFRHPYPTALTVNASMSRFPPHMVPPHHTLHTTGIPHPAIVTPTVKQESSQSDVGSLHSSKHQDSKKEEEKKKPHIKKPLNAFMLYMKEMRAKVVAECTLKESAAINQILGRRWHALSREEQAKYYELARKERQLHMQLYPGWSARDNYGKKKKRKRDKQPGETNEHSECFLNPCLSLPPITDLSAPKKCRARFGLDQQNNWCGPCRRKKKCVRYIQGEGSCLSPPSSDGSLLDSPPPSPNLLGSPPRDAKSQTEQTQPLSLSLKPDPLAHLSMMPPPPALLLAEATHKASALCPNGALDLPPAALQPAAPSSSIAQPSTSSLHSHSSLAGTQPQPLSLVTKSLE

B1: HA-epitope-tagged GRG5/AES (natural protein, human, UniProt Q08117 1-197, looked up)
chain: MMFPQSRHSGSSHLPQQLKFTTSDSCDRIKDEFQLLQAQYHSLKLECDKLASEKSEMQRHYVMYYEMSYGLNIEMHKQAEIVKRLNGICAQVLPYLSQEHQQQVLGAIERAKQVTAPELNSIIRQQLQAHQLSQLQALALPLTPLPVGLQPPSLPAVSAGTGLLSLSALGSQAHLSKEDKNGHDGDTHQEDDGEKSD
  TCF-Luc luciferase reporter in HEK293 cells with transfected β-catenin: repression on co-transfection of GRG5/AES and dnTCF4 plasmids (0.4 µg each), against a 6.3-fold additive effect of each alone: 22.5 fold
